In patent publication US20250339569A1 (3B PHARMACEUTICALS, published 2025):
Starred links: 1 amine or outer side, 2 acyl side, 3 side chain; linkers in the order of their positions; H or OH if unused. Positions of bridges follow the written chain, without caps; N, C: chain ends. Non-standard residues stand in square brackets, D forms with d. Primed or numbered codes have the meaning given here. *: point of attachment. Aph(2Ta5Sa)″ = 4-amino-L-phenylalanine, ring amine acylated by 5-sulfamoyl-thiophene-2-carboxylic acid, NS(=O)(=O)c1ccc(C(=O)Nc2ccc(C[C@H](N[*:1])C(=O)[*:2])cc2)s1; Af3(2Ta5Sa) = 3-amino-L-phenylalanine, ring amine acylated by 5-sulfamoyl-thiophene-2-carboxylic acid, NS(=O)(=O)c1ccc(C(=O)Nc2cccc(C[C@H](N[*:1])C(=O)[*:2])c2)s1; Aph(5SaPyr2) = 4-amino-L-phenylalanine, ring amine acylated by 5-sulfamoylpyridine-2-carboxylic acid, NS(=O)(=O)c1ccc(C(=O)Nc2ccc(C[C@H](N[*:1])C(=O)[*:2])cc2)nc1; Af3(3Ta5Sa) = 3-aminophenylalanine, ring amine acylated with 5-sulfamoylthiophene-3-carboxylic acid, NS(=O)(=O)c1cc(C(=O)Nc2cccc(C[C@H](N[*:1])C(=O)[*:2])c2)cs1; Aph(3MSaBz) = 4-aminophenylalanine, ring amine acylated with 3-(sulfamoylmethyl)benzoic acid, NS(=O)(=O)Cc1cccc(C(=O)Nc2ccc(C[C@H](N[*:1])C(=O)[*:2])cc2)c1; Af3(3SaBz) = 3-aminophenylalanine, ring amine acylated with 3-sulfamoylbenzoic acid, NS(=O)(=O)c1cccc(C(=O)Nc2cccc(C[C@H](N[*:1])C(=O)[*:2])c2)c1; Af3(OPyAc) = 3-aminophenylalanine, ring amine acylated with 2-(2-oxopyridin-1-yl)acetic acid, O=C(Cn1ccccc1=O)Nc1cccc(C[C@H](N[*:1])C(=O)[*:2])c1; Aph(3SaBz) = 4-aminophenylalanine, ring amine acylated with 3-sulfamoylbenzoic acid, NS(=O)(=O)c1cccc(C(=O)Nc2ccc(C[C@H](N[*:1])C(=O)[*:2])cc2)c1; Aph(SaPr) = 4-amino-L-phenylalanine, ring amine acylated by 3-sulfamoylpropanoic acid, NS(=O)(=O)CCC(=O)Nc1ccc(C[C@H](N[*:1])C(=O)[*:2])cc1; Af3(SaPr) = 3-aminophenylalanine, ring amine acylated with 3-sulfamoylpropanoic acid, NS(=O)(=O)CCC(=O)Nc1cccc(C[C@H](N[*:1])C(=O)[*:2])c1; Aph(HYDAc) = 4-amino-L-phenylalanine, ring amine acylated by hydantoin-5-acetic acid; Phe(3-NHCO(CH2)3SO2NH2) = N[C@@H](Cc1cccc(NC(=O)CCCS(N)(=O)=O)c1)C(=O)O; DOTA = O=C(O)CN1CCN(CC(=O)O)CCN(CC(=O)*)CCN(CC(=O)O)CC1; Phe(3,4-Cl2) = N[C@@H](Cc1ccc(Cl)c(Cl)c1)C(=O)O; Phe(3-CF3) = N[C@@H](Cc1cccc(C(F)(F)F)c1)C(=O)O; PPAc = 4-carboxymethyl piperazine linker; mXylylene = c1cc(C[*:1])cc(C[*:2])c1; N4AzPhCONH2 = not defined here; N4DazPhCN = not defined here; N6MeQuion = not defined here; NH3PhSa = not defined here; NH4PhSa = not defined here; N4Inda = not defined here; Pip = O=C(O)[C@@H]1CCCCN1; PPAc″ = not defined here; APAc = not defined here; Dap = NC[C@H](N)C(=O)O

Assays:
[1] = molecular target: T1, Fc-fusion protein of human carbonic anhydrase IX (human, UniProt Q16790 38-414); assay: SPR, captured hCAIX-Fc; pKD category A: >8.0
[2] = molecular target: T2, human carbonic anhydrase IX (CAIX) (human, UniProt Q16790 38-459); assay: FACS competition, HT-29 cells, tracer 3BP-4149; pIC50 category B: 7.1-8.0
Protocol: (§1) CAIX-expressing human HT-29 colorectal cancer cells (DSMZ, RRID: CVCL_0320) were cultured in McCoys's 5A modified medium (Biochrom, #F1015) including 10% fetal calf serum (FCS), 2 mM L-glutamine, 100 U/ml penicillin and 100 μg/mL streptomycin. Cells were detached with Accutase (Biolegend, #423201) and washed in FACS buffer (PBS including 1% FCS). Cells were diluted in FACS buffer to a final concentration of 500.000 cells per ml. 200 μL of the cell suspension were transferred to a u-shaped non-binding 96-well plate (Greiner) and cells were washed in ice-cold FACS buffer.
(§2) When biotinylated compounds were used an additional incubation step with 1 μg/mL APC-Streptavidin (Miltenyi; #130-106-791) in 50 μL FACS buffer for 30 minutes on ice was performed.
(§3) Cells were washed twice with ice-cold FACS buffer and analyzed in an Attune NxT flow cytometer (Thermo Fisher). Median fluorescence intensities (MFI) of the APC/Cy5-channel were calculated by Attune NxT software.

[3] = molecular target: T1, Fc-fusion protein of human carbonic …; assay: SPR, captured hCAIX-Fc; t1/2 category A: >15.0 min
[4] = molecular target: T2, human carbonic anhydrase IX (CAIX); assay: FACS competition, HT-29 cells, tracer 3BP-4149; pIC50 category A: >8.0
Protocol: as §1, §2, §3

[5] = molecular target: T1, Fc-fusion protein of human carbonic …; assay: SPR, captured hCAIX-Fc; t1/2 category B: 5.1-15.0 min
[6] = molecular target: T1, Fc-fusion protein of human carbonic …; assay: SPR, captured hCAIX-Fc; t1/2 category C: 2.1-5.0 min
Protocol: Stock solutions of test compounds were prepared by dissolving each compound in DMSO. DMSO stock solution were diluted 1:1000 in Running Buffer without DMSO. […] SPR binding analyses were performed in Single Cycle Kinetic (SCK) mode at 25° C.
For each test compound, SPR raw data in the form of resonance units (RU) were plotted as sensorgrams using the Biacore™ T200 control software. The signal from the blank sensorgram was subtracted from that of the test compound sensorgram (blank corrected). The blank corrected sensorgram was corrected for baseline drift by subtracting the sensorgram of a SCK run without the test compound (running buffer only). […] Raw data and fit results were imported as text files in IDBS. The pKD value (negative decadic logarithm of dissociation constant) was calculated in the IDBS excel template.

Binder | pKD [1] | pIC50 [2] | t1/2 (half-life of the complex, SPR) [3] | pIC50 [4] | t1/2 (half-life of the complex, SPR) [5] | t1/2 (half-life of the complex, SPR) [6]
{DOTA-APAc}-VYCE[dP]D[Af3(3Ta5Sa)]LTWSC-NH2 (linker 3-12 via mXylylene; reading uncertain) [3BP-4412] | > 8 pkd | – | > 15 min | > 8 pic50 | – | –
{DOTA-APAc}-VYCE[dP]D[Aph(3MSaBz)]LTWSC-NH2 (linker 3-12 via mXylylene; reading uncertain) [3BP-4399] | – | 7.1 to 8 pic50 | – | – | – | –
{DOTA-APAc}-VYCE[dP]D[Af3(3SaBz)]LTWSC-NH2 (linker 3-12 via mXylylene; reading uncertain) [3BP-4409] | > 8 pkd | – | > 15 min | > 8 pic50 | – | –
{DOTA-APAc}-VYCE[dP]E(N6MeQuion)WLTWSC-NH2 (linker 3-12 via mXylylene; reading uncertain) [3BP-4390] | – | 7.1 to 8 pic50 | – | – | – | –
{DOTA-APAc}-VYCE[dP]D[Af3(OPyAc)]LTWSC-NH2 (linker 3-12 via mXylylene; reading uncertain) [3BP-4370] | – | 7.1 to 8 pic50 | – | – | – | –
{DOTA-APAc}-VYCE[dP]E(N4Inda)WLTWSC-NH2 (linker 3-12 via mXylylene; reading uncertain) [3BP-4387] | > 8 pkd | 7.1 to 8 pic50 | > 15 min | – | – | –
{DOTA-APAc}-VYCE[dP]D[Af3(SaPr)]LTWSC-NH2 (linker 3-12 via mXylylene; reading uncertain) [3BP-4407] | > 8 pkd | – | > 15 min | > 8 pic50 | – | –
{DOTA-APAc}-VYCE[dP]E(N4AzPhCONH2)WLTWSC-NH2 (linker 3-12 via mXylylene; reading uncertain) [3BP-4388] | – | 7.1 to 8 pic50 | – | – | – | –
{DOTA-APAc}-VYCE[dP]D[Aph(3SaBz)]LTWSC-NH2 (linker 3-12 via mXylylene; reading uncertain) [3BP-4408] | > 8 pkd | – | > 15 min | > 8 pic50 | – | –
{DOTA-APAc}-VYCE[dP]E(N4DazPhCN)WLTWSC-NH2 (linker 3-12 via mXylylene; reading uncertain) [3BP-4389] | – | 7.1 to 8 pic50 | – | – | – | –

More lines, now with the values ahead:

pKD [1] | pIC50 [2] | t1/2 (half-life of the complex, SPR) [3] | pIC50 [4] | t1/2 (half-life of the complex, SPR) [5] | t1/2 (half-life of the complex, SPR) [6] | Binder
> 8 pkd | 7.1 to 8 pic50 | > 15 min | – | – | – | {DOTA}-[Pip]YCE[dP]D[Phe(3-NHCO(CH2)3SO2NH2)]LTWSC-NH2 (linker 3-12 via mXylylene; SMILES CC(C)C[C@@H]1NC(=O)[C@H](Cc2cccc(NC(=O)CCCS(N)(=O)=O)c2)NC(=O)[C@H](CC(=O)O)NC(=O)[C@H]2CCCN2C(=O)[C@H](CCC(=O)O)NC(=O)[C@@H](NC(=O)[C@H](Cc2ccc(O)cc2)NC(=O)[C@@H]2CCCCN2C(=O)CN2CCN(CC(=O)O)CCN(CC(=O)O)CCN(CC(=O)O)CC2)CSCc2cccc(c2)CSC[C@@H](C(N)=O)NC(=O)[C@H](CO)NC(=O)[C@H](Cc2c[nH]c3ccccc23)NC(=O)[C@H]([C@@H](C)O)NC1=O) [3BP-4456]
> 8 pkd | 7.1 to 8 pic50 | > 15 min | – | – | – | {DOTA-APAc}-VYCE[dP]E(NH3PhSa)WLTWSC-NH2 (linker 3-12 via mXylylene; reading uncertain) [3BP-4441]
> 8 pkd | 7.1 to 8 pic50 | > 15 min | – | – | – | {DOTA-APAc}-VYCE[dP]E(NH4PhSa)WLTWSC-NH2 (linker 3-12 via mXylylene; reading uncertain) [3BP-4442]
> 8 pkd | – | > 15 min | > 8 pic50 | – | – | {DOTA}-DCE[dP]D[Aph(SaPr)]LTW[Dap]C-NH2 (lactam 1-10; linker 2-11 via mXylylene; SMILES CC(C)C[C@@H]1NC(=O)[C@H](Cc2ccc(NC(=O)CCS(N)(=O)=O)cc2)NC(=O)[C@H](CC(=O)O)NC(=O)[C@H]2CCCN2C(=O)[C@H](CCC(=O)O)NC(=O)[C@@H]2CSCc3cccc(c3)CSC[C@@H](C(N)=O)NC(=O)[C@H](CNC(=O)C[C@H](NC(=O)CN3CCN(CC(=O)O)CCN(CC(=O)O)CCN(CC(=O)O)CC3)C(=O)N2)NC(=O)[C@H](Cc2c[nH]c3ccccc23)NC(=O)[C@H]([C@@H](C)O)NC1=O) [3BP-4489]
> 8 pkd | 7.1 to 8 pic50 | > 15 min | – | – | – | {DOTA-PPAc}-DCE[dP]D[Aph(SaPr)]LTW[Dap]C-NH2 (lactam 1-10; linker 2-11 via mXylylene) [3BP-4498]
> 8 pkd | – | – | > 8 pic50 | 5.1 to 15 min | – | {DOTA-APAc}-VDCE[dP]D[Phe(3-CF3)]LTW[Dap]C-NH2 (lactam 2-11; linker 3-12 via mXylylene; reading uncertain) [3BP-4440]
– | 7.1 to 8 pic50 | – | – | – | 2.1 to 5 min | {DOTA-PPAc″}-QCE[dP]D[Aph(5SaPyr2)]LTWSC-NH2 (linker 2-11 via mXylylene; reading uncertain) [3BP-4480]
> 8 pkd | – | > 15 min | > 8 pic50 | – | – | {DOTA-APAc}-VDCE[dP]D[Phe(3-NHCO(CH2)3SO2NH2)]LTW[Dap]C-NH2 (lactam 2-11; linker 3-12 via mXylylene; reading uncertain) [3BP-4445]
– | 7.1 to 8 pic50 | – | – | – | – | {DOTA-APAc}-VYCE[dP]D[Aph(HYDAc)]LTWSC-NH2 (linker 3-12 via mXylylene; reading uncertain) [3BP-4458]
> 8 pkd | – | > 15 min | > 8 pic50 | – | – | {DOTA}-DCE[dP]D[Phe(3-NHCO(CH2)3SO2NH2)]LTW[Dap]C-NH2 (lactam 1-10; linker 2-11 via mXylylene; SMILES CC(C)C[C@@H]1NC(=O)[C@H](Cc2cccc(NC(=O)CCCS(N)(=O)=O)c2)NC(=O)[C@H](CC(=O)O)NC(=O)[C@H]2CCCN2C(=O)[C@H](CCC(=O)O)NC(=O)[C@@H]2CSCc3cccc(c3)CSC[C@@H](C(N)=O)NC(=O)[C@H](CNC(=O)C[C@H](NC(=O)CN3CCN(CC(=O)O)CCN(CC(=O)O)CCN(CC(=O)O)CC3)C(=O)N2)NC(=O)[C@H](Cc2c[nH]c3ccccc23)NC(=O)[C@H]([C@@H](C)O)NC1=O) [3BP-4488]
> 8 pkd | – | > 15 min | > 8 pic50 | – | – | {DOTA-APAc}-VYCE[dP]D[Af3(2Ta5Sa)]LTWSC-NH2 (linker 3-12 via mXylylene; reading uncertain) [3BP-4413]
> 8 pkd | – | – | > 8 pic50 | 5.1 to 15 min | – | {DOTA-APAc}-VDCE[dP]D[Phe(3,4-Cl2)]LTW[Dap]C-NH2 (lactam 2-11; linker 3-12 via mXylylene; reading uncertain) [3BP-4439]
> 8 pkd | – | – | > 8 pic50 | 5.1 to 15 min | – | {DOTA-PPAc″}-YCE[dP]D[Aph(2Ta5Sa)″]LTWSC-NH2 (linker 2-11 via mXylylene; reading uncertain) [3BP-4457]
